The values that follow come from PMC13477270.

This test concerns the target miniTRIM37 RING–B-box-2–hcc (human | T. thermophilus) (UniProt O94972). Put plainly: SEC-MALS. For orientation: In gel filtration, larger molecules generally elute earlier.

For the substance “miniTRIM37 RING–B-box-2–hcc (from UniProt O94972 1-158; O94972 214-254)”, the stoichiometry N stood at 2.

What is called stoichiometry N is a count of units in the complex or per binding partner.
